Test results as given in publication doi:10.1101/2022.12.19.520972 (bioRxiv, 2022).

B1: PEX5 W1 (peptide)
peptide: ALSENWAQEFLAAGD
B2: PEX13 SH3-CTR (261-403) (domain or fragment)
chain: VTDSINWASGEDDHVVARAEYDFAAVSEEEISFRAGDMLNLALKEQQPKVRGWLLASLDGQTTGLIPANYVKILGKRKGRKTVESSKVSKQQQSFTNPTLTKGATVADSLDEQEAAFESVFVETNKVPVAPDSIGKDGEKQDL
B3: PEX13 C-terminal peptide FxxxF to PEX5 W4 (domain or fragment)
chain: QQQSFTNPTLTKGATVADSLDEQEAAWYDEYVETNKVPVAPDSIGKDGEKQDL
B4: PEX13 FxxxF (350-403) (domain or fragment)
chain: KQQQSFTNPTLTKGATVADSLDEQEAAFESVFVETNKVPVAPDSIGKDGEKQDL
B5: PEX14 NTD (1-104) (domain or fragment)
chain: MASSEQAEQPSQPSSTPGSENVLPREPLIATAVKFLQNSRVRQSPLATRRAFLKKKGLTDEEIDMAFQQSGTAADEPSSLGPATQVVPVQPPHLISQPYSPAGS
B6: PEX5 W6 (peptide)
peptide: GTSDAWVDQFTRPVN
B7: PEX13 PxxP peptide (49-61) (peptide)
peptide: TRVPPPILPRPSQ
B8: PEX5 W2 (peptide)
peptide: YNETDWSQEFISEVT
B9: PEX5 W5 (peptide)
peptide: AQAEQWAAEFIQQQG
B10: PEX5 W4 (peptide)
peptide: TATDRWYDEYHPEED
B11: PEX5 W7 (peptide)
peptide: AEAHPWLSDYDDLTS
B12: PEX5 W3 (peptide)
peptide: VSPARWAEEYLEQSE

What was measured:
PEX14 NTD (1-104) = target: B5; test: ITC
PEX13 SH3 (261-346) [1] = target: T1, PEX13 SH3 (261-346) (human, UniProt Q92968 261-346); test: ITC
T1 sequence: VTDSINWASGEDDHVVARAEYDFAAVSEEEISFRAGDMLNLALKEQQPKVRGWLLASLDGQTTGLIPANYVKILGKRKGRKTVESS

PEX13 SH3-CTR (261-403) [2] = target: B2; test: ITC
PEX13 SH3 (261-346) [3] = target: T1, PEX13 SH3 (261-346); test: NMR titration
PEX13 SH3-CTR (261-403) [4] = target: B2; test: NMR titration

B1
binding result (PEX14 NTD (1-104)): binds

B2
stoichiometry N (PEX14 NTD (1-104)): 1

B3
Kd (PEX13 SH3 (261-346) [1]): ~6 µM
stoichiometry N (PEX13 SH3 (261-346) [1]): 1

B4
Kd (PEX13 SH3 (261-346) [1]): 27 µM
Kd (PEX14 NTD (1-104)): 2.8 µM
stoichiometry N (PEX14 NTD (1-104)): 1

B5
Kd (PEX13 SH3-CTR (261-403) [2]): 5.4 µM

B6
binding result (PEX14 NTD (1-104)): binds

B7
binding result (PEX13 SH3 (261-346) [3]): binds
binding result (PEX13 SH3-CTR (261-403) [4]): binds

B8
binding result (PEX14 NTD (1-104)): binds

B9
binding result (PEX14 NTD (1-104)): binds

B10
Kd (PEX14 NTD (1-104)): 3.14 µM

B11
binding result (PEX14 NTD (1-104)): binds

B12
binding result (PEX14 NTD (1-104)): binds
